# From PMC4928148 (Biochemistry, 2016)
# B1: secreted (extracellular) catalase-peroxidase from Magnaporthe grisea, wild type (enzyme)
# chain: QGCPFAKRDGTVDSSLPQKRADAPETTTFGRCAVKSNQAGGGTRSHDWWPCQLRLDVLRQFQPSQNPLGGDFDYAEAFQSLDYEAVKKDIAALMTESQDWWPADFGNYGGLFVRMAWHSAGTYRAMDGRGGGGMGQQRFAPLNSWPDNQNLDKARRLIWPIKQKYGNKISWADLMLLTGNVALENMGFKTLGFGGGRADTWQSDEAVYWGAETTFVPQGNDVRYNNSVDINARADKLEKPLAATHMGLIYVNPEGPNGTPDPAASAKDIREAFGRMGMNDTETVALIAGGHAFGKTHGAVKGSNIGPAPEAADLGMQGLGWHNSVGDGNGPNQMTSGLEVIWTKTPTKWSNGYLESLINNNWTLVESPAGAHQWEAVNGTVDYPDPFDKTKFRKATMLTSDLALINDPEYLKISQRWLEHPEELADAFAKAWFKLLHRDLGPTTRYLGPEVPKESFIWQDPLPAREGDLIDDADVDKLKAAILSTDGLDVSKLASTAMACATTYRNSDKRGGCNGARIALEPQRNWVSNNPTQLSAVLDALKKVQSDFNGSNGNKKVSLADLIVLGGTAAVEKAAKDAGVDIKVPFSAGRVDATQEQTDVTQFSYLEPQADGFRNYGRGTARARTEEIMVDKASQLTLTPPELTVLVGGMRALGANYDGSDVGVFTANKGKLTPDFFVNLVDMNIAWTASGADGESWVGTDRKSRSEKYKGSRADLVFGSHAELRAIAEVYAENGNQEKFVKDFVAAWTKVMNLDRFDLKVKK
# Target: the molecule itself
# Test: crystal structure
protein,measurement,value
B1,stoichiometry N,2
